# What was measured:
# [1] = anti-Flag Western blot, Hep3B lysates; conditions: glycan lost; control: wild type 3xFlag-FASN
# [2] = BODIPY 493/503 staining, confocal, droplet count; conditions: glycan lost; control: wild type 3xFlag-FASN
# [3] = cell fractionation (membrane vs cytosol), Western blot; conditions: glycan lost; control: wild type 3xFlag-FASN
# [4] = cycloheximide chase 0-24 h, protein remaining; conditions: glycan lost; control: wild type 3xFlag-FASN
# [5] = molecular target: 3xFlag-FASN wild type (fatty acid synthase) (UniProt P49327); assay: native gel or EMSA; lysates of transfected Hep3B cells (10 mM Tris/HCl, 1 mM EDTA, 1 mM EGTA, 0.5% Triton X-100, pH 7.5) on a 4-to-10% gradient gel, 50 V overnight at 4 °C, blotted for 3xFlag-FASN; monomers (~250 kDa) and dimers (~500 kDa)
Substance,expression_or_secretion [1],other: lipid droplet number (activity proxy) [2],localisation_or_trafficking [3],degradation_or_half_life [4],stoichiometry N [5]
Fatty Acid Synthase (FASN): S595A,decreases,no change,no change,–,–
Fatty Acid Synthase (FASN): T980A,decreases,–,decreases,decreases,–
"3xFlag-FASN wild type (fatty acid synthase), P49327 1-2511",–,–,–,–,2
